This note sets out measurements from publication PMC6491428.

As usually defined, the Kd is the constant that tells how readily two partners part at equilibrium. Read a high Kd as lower affinity.

Series [1] deals with TH1N1 (influenza A H1N1 target protein; protein identity not stated in the material) (Influenza A virus H1N1 (strain not stated)). Kind of series: SPR. (SPR reads the build-up and loss of mass on a sensor chip optically.)
The test system is the same in series [2]. Kind of series: electrochemical DPV (Apta-DEPSOR).
Series [3] deals with TH3N2 (influenza A H3N2 target protein; protein identity not stated in the material) (Influenza A virus H3N2 (strain not stated)). Kind of series: SPR.
Series [4] has the same test system. Kind of series: electrochemical DPV (Apta-DEPSOR).

In series [1], “AGCAGCACAGAGGTCAGATGAGGTGATGAGATTTGTACCTCTCGCGGCACCCTATCGCTGCTACCGTGAA [Apt02>TH1N1]” had a Kd of 57 nM. Further, in series [2], the binding signal is 2.26 µA (Ipc).

With “AGCAGCACAGAGGTCAGATGATTGGATCGTGACGGTTGTTGGGGCTCCGCCTATCGCTGCTACCGTGAA [Apt01>TH1N1]”, the equilibrium dissociation constant (Kd) in series [1] turned out to be 35000 nM. Further, the binding signal in series [2] is 0.85 µA (Ipc).

“AGCAGCACAGAGGTCAGATGCTAGCCGTGAGCGTGGTGAGCTCGGTTGACCCTATCGCTGCTACCGTGAA [Apt01>TH3N2]”: in series [3], the Kd was found to be 0.14 nM. The sequence also displayed a binding signal (fold lower signal than with TH3N2) in series [2] of 9. The binding signal in series [4] was 1.73 µA (Ipc).

On to “AGCAGCACAGAGGTCAGATGGCGCGGGCGGTGCGTCGGTGTCCCGCTGGCCTATCGCTGCTACCGTGAA [Apt03>TH3N2]”, for which the Kd in series [3] was determined as 0.6 nM. For the same sequence, the binding signal in series [4] was 1.11 µA (Ipc).

For the sequence “AGCAGCACAGAGGTCAGATGGTGGTTGTTTTGGGCGAAGTGGCCATGGTCCCTATCGCTGCTACCGTGAA [Apt02>TH3N2]”, the Kd in series [3] was found to be 1.7 nM. The binding signal in series [4] is 1.16 µA (Ipc).

Turning to “AGCAGCACAGAGGTCAGATGTAGGTCGTACTCTGGCGGCCTGTTTGGCCCTATCGCTGCTACCGTGAA [Apt03>TH1N1]”, the Kd in series [1] worked out at 0.082 nM. Further, in series [2], the binding signal was 3.37 µA (Ipc). The sequence further returned a binding signal (fold lower signal than with TH1N1) in series [4] of 5.

For “AGCAGCACAGAGGTCAGATGTCTGCAGCGTGCAGGGCTGTGTGCTTACCCCCTATCGCTGCTACCGTGAA [Apt04>TH3N2]”, the Kd in series [3] was 0.088 nM. Further, in series [4], the binding signal was 1.61 µA (Ipc).

“AGCAGCACAGAGGTCAGATGTGTGCGTGCTTGGGGTATAGTCGGGTCGGCCTATCGCTGCTACCGTGAA [Apt04>TH1N1]” showed a Kd in series [1] of 1.6 nM. In addition, the binding signal in series [2] is 1.23 µA (Ipc).
